Data: patent US20230189818A1, “RNA-BASED CONTROL OF BOTRYTIS” (priority 2021, published 2023)

B1: GS349: dsRNA trigger targeting B. cinerea CDC42 (XM_001545642.2); trigger SEQ ID NO 14, RNA 26, reverse complement 38 (nucleic acid, listed as Botrytis cinerea)
sense: GUUGUCUUGUCUCGCUCAAGCUUGUCCUGUCUGGUCACUUUUCUUUCUGCCUGAUAAUCCAGACCUCGAAAAUAACCAAAAGAUUGGAAAUCGUUUGCUCAUCUUGCAUGCAUUAUUACUUUCCUGGAUCAAUCUCAUUCAACUCGUUCUCGUGCAUUUCAUUCAACCUCAACCCCUACUUUCAGUCAAUUCAAUUUAAUUCAAUCAUUCAAAUCUUUCAUUUCGCACACUUCACAUUCAACCAUCCUCUCUCAAUCAAAUAUCACCACCUCUCUUAUCGAACGUCAUUUUGCAUACAAUCAAUUCCUACAGACCGAGCGCAACUCGAUACAACCAUCGAAUAACUUCUCACACUUGCUUGUUGAAUUGAUUACUGAAGAAAGUGGAUUUCAAAGACCGAUUUUCCCCCUAGAUAUUCAAGAACGGCUUAUUCUUGUCUCGAGACAAAAC
antisense: GUUUUGUCUCGAGACAAGAAUAAGCCGUUCUUGAAUAUCUAGGGGGAAAAUCGGUCUUUGAAAUCCACUUUCUUCAGUAAUCAAUUCAACAAGCAAGUGUGAGAAGUUAUUCGAUGGUUGUAUCGAGUUGCGCUCGGUCUGUAGGAAUUGAUUGUAUGCAAAAUGACGUUCGAUAAGAGAGGUGGUGAUAUUUGAUUGAGAGAGGAUGGUUGAAUGUGAAGUGUGCGAAAUGAAAGAUUUGAAUGAUUGAAUUAAAUUGAAUUGACUGAAAGUAGGGGUUGAGGUUGAAUGAAAUGCACGAGAACGAGUUGAAUGAGAUUGAUCCAGGAAAGUAAUAAUGCAUGCAAGAUGAGCAAACGAUUUCCAAUCUUUUGGUUAUUUUCGAGGUCUGGAUUAUCAGGCAGAAAGAAAAGUGACCAGACAGGACAAGCUUGAGCGAGACAAGACAAC
B2: GS2297: dsRNA trigger targeting B. cinerea Bcrpb5 (XM_024693733.1); trigger SEQ ID NO 23, RNA 35, reverse complement 47 (nucleic acid, listed as Botrytis cinerea)
sense: UGCACCAUCAGGUCCCGCUCAAAAGAUUAUUCCCGCUGUCGCAUCCGAGACAAGAAUCGAGACCUUCGUCGAGCAAGAUUUACUUGUCAAUAUUACACAUCAUGAAUUGGUUCCCAAGCAUGUUUUGUUAAGUAGAGAAGAGAGGGCCAAGUUGUUGUCAAGAUAUAGAUUGAAGGAUACUCAACUCCCACGUAUUCAGGCUGCGGAUCCAGUUGCAAAAUAUUUGGGAUUGAGAAGAGGGCAGGUCGUUAAGAUUAUCAGAAAGUCGGAAACUGCUGGUCGUUAUGCCAGUUACAGAUUGUGCGUAUAAUGGAGCUGGAGGGUAGAUGAUUUGGUGUUAAUAACUAGGGAGUUUCUUGGGAAAAAUUUGCAUAUUUGGGGAAGGCGUAAUAGGCUGGAAGAAAGACUGAGGAUGAGAUUGUCUAUUUUGGCUUUCCAGGAAGCAAUACUUUGAGACAUGAAAUUUGAUAUUAAAUUUCUUGUUCUGUAUAUUUCUGAUAGUUUCAGAGCUUUUCAAUAAGAUCUAUUCUACAGUUUUAAGAAUCCAGACUCACCCUUUGAGAAGCUCAUACAAAGUUCCUUCCUA
antisense: UAGGAAGGAACUUUGUAUGAGCUUCUCAAAGGGUGAGUCUGGAUUCUUAAAACUGUAGAAUAGAUCUUAUUGAAAAGCUCUGAAACUAUCAGAAAUAUACAGAACAAGAAAUUUAAUAUCAAAUUUCAUGUCUCAAAGUAUUGCUUCCUGGAAAGCCAAAAUAGACAAUCUCAUCCUCAGUCUUUCUUCCAGCCUAUUACGCCUUCCCCAAAUAUGCAAAUUUUUCCCAAGAAACUCCCUAGUUAUUAACACCAAAUCAUCUACCCUCCAGCUCCAUUAUACGCACAAUCUGUAACUGGCAUAACGACCAGCAGUUUCCGACUUUCUGAUAAUCUUAACGACCUGCCCUCUUCUCAAUCCCAAAUAUUUUGCAACUGGAUCCGCAGCCUGAAUACGUGGGAGUUGAGUAUCCUUCAAUCUAUAUCUUGACAACAACUUGGCCCUCUCUUCUCUACUUAACAAAACAUGCUUGGGAACCAAUUCAUGAUGUGUAAUAUUGACAAGUAAAUCUUGCUCGACGAAGGUCUCGAUUCUUGUCUCGGAUGCGACAGCGGGAAUAAUCUUUUGAGCGGGACCUGAUGGUGCA

How the values were obtained:
B. cinerea = assay: Open-air field trial on snap bean (Example 4.3, AUDPC of % disease severity); format: in vivo, Botrytis cinerea; conditions: Switch 525 g ai/ha, GS349 20 and 40, GS2280 10 and 40, GS2303 10, 20 and 40, GS2297 20 g ai/ha, FIG. 9
Protocol: RNAi compositions, each containing a dsRNA comprising a trigger sequence (GS349, GS2280, GS2303, or GS2297) described herein were evaluated for ability to control botrytis on snap bean in open-air filed trials. All test samples were formulated with RO water, propylene glycol, a linear alcohol ethoxylate, a lignosulfanate, sodium citrate dihydate, a polyacrylic acid polymer, two biocide compositions, anhydrous citric acid, and an antifoam, all of which are readily commercially available. Formulation samples were tank mixed with a standard adjuvant, the non-ionic surfactant, Activator 90 0.125%v/v. Compositions were tested at concentrations of 10, g ai/ha, 20 g ai/ha, and 40 g ai/ha. Positive controls were a chemical standard, Switch 525 g ai/ha and a biological standard, Double Nickel LC 9.4 I/ha, both of which were also tank mixed with Activator 90 0.125% v/v. As above, an untreated check was used as a negative control.
Compositions were applied to snap bean plants using a small plot sprayer delivering 50 gallons of water per acre. A total of three applications were used for each sample and positive control. Disease state was evaluated beginning 8 days after the first application and ending 37 days after the third and final application. Percent Disease Severity was assessed and AUDPC was calculated in the same manner as noted in Example 4.1.

Botrytis cinerea conidia = assay: In vitro liquid-based assay (fungal biomass, 96-well plates, Cytation 5); format: cell-based; conditions: co-incubated with conidia for three days, vs untreated control
Outline: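 Conidia (5000/mL stock) were co-incubated with dsRNA or control treatments in pH 6.0 minimal medium. Incubation ran 72 h at 23 °C, shaking at 120 rpm under continuous light. Fungal biomass was measured by brightfield imaging (8 slices per well, 2.5× lens) and expressed as average reduction versus control.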

Botrytis = assay: Open-air field trial on strawberry (Example 4.1, AUDPC of % disease severity); format: in vivo, Botrytis cinerea; conditions: FIG. 6
Protocol: RNAi compositions, each containing a dsRNA comprising a trigger sequence (GS349 or GS730) described herein were evaluated for ability to control botrytis on strawberry in open-air field trials. Non-formulated (dissolved in water) GS349 and GS730 were each tank mixed with water and the standard adjuvant Silwet L-77 0.1% v/v. GS349 was tested at concentrations of 25 grams of active ingredient per hectare (g ai/ha) and 50 g ai/ha and GS730 was tested at a concentration of 100 g ai/ha. Serenade ASO 85 g ai/ha, a standard biological fungicide, was used as a positive control. A second positive control group was treated with alternating applications of the chemical standards Teldor Plus 750 g ai/ha, Signum 600 g ai/ha, and Switch 500 g ai/ha. The trial also included an untreated group as a negative control.
Test compositions and positive controls were sprayed onto strawberry plants in 12 applications. Plants were observed beginning 14 days after the first application and disease progress was assessed by determining the percentage of surface area of fruit that was affected by the disease (% Disease Severity). Disease severity was plotted over the length of the trial observations and area under disease progress curve (AUDPC) was calculated in order to measure the cumulative effect of the various treatments across multiple assessments. Means were separated according to Fisher's LSD, alpha (p)≤0.05.

Molecule	Disease state compared to treatment with the chemical standard (AUDPC) (B. cinerea)	Average % Reduction in Biomass (Botrytis cinerea conidia; 25 ppm dsRNA) [%]	Average % Reduction in Biomass (Botrytis cinerea conidia; 150 ppm dsRNA) [%]	Disease control compared with the biological standard (AUDPC) (Botrytis; 50 g/h ai, Serenade ASO 85 g ai/ha)	Disease control compared with the chemical standard (AUDPC) (Botrytis; 50 g/h ai, alternating Teldor Plus, Signum, Switch)	Disease control compared with the biological standard, Serenade (AUDPC) (Botrytis; GS349 25 g ai/ha, GS730 100 g ai/ha, Serenade ASO 85 g ai/ha)	Control of Botrytis vs. the untreated control (AUDPC) (Botrytis; non-formulated, Silwet L-77 0.1% v/v, 12 applications, GS349 25 and 50 g ai/ha, GS730 100 g ai/ha)
B1	no significant difference	8	25	significantly improved control	not significantly different	not significantly different	significant control
B2	no significant difference	11	24	–	–	–	–
